From the nanobody polyreactivity screen of Harvey et al. (2022)

Test: yeast display, Sf9 membrane polyspecificity reagent, FACS + sequencing; frameworks hold sequencing errors
Summary of the method: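 After 36–48 hours of galactose induction, yeast (Saccharomyces cerevisiae BJ5465) displaying a synthetic nanobody library were stained at 4 °C for 1 hour with 10% biotinylated, detergent-solubilized Sf9 membrane reagent. Streptavidin microbeads enriched the stained cells before FACS sorting into low and high (top ~1%) gates on anti-HA and streptavidin fluorescence. Each clone's polyreactivity label reflects its gate of origin.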

Sequence | polyreactivity (PSR sort gate)
QVNLVESGGGLVQAGGSLRLSCAASGIIFIAYAMRWYRQAPGKERELVADISIGGSTNYADSVKGRFTISRDNAKNTVYLEMNSLKPEDTAVYYCNAGGGFYGSTVEHDYWGKGTQVTVSS | low polyreactivity
QVQLVESGGGLVQAGGSLRLSCAASGRTFKYNAMGWYRQAPGKERELVAAITRSGSTYYADSVKGRFTISRDNAKNTVYLQMNSLKPEDTAVYYCNARIVNYGSYYYWGQGTQVTVSS | high polyreactivity
QVQLVESGGGLVQAGGSLRLSCAASGSNFYPYAMGWYRQAPGKEREFVAAITRSGGSTSYADSVKGRFTISRDNAKNTVYLQMNSLKPVDTAVDYCAAGYWYPDYDGFDYWGQGTQVTGSS | low polyreactivity
QVHLVESGGGLVQAGGSLRLSCAASGRTFVAYAMGWYRQAPAKERELVARISSGGSTYYADSVKGRFTISRDNAKNTVYLQMNSLKPEDTAVYYCAADRGPFFVPWRRYDYWGQGTEVTVSS | low polyreactivity
QVQLVESGGGLVQAGGSLRLSCAASGSTFGPNAMGWYRQAPGKERELVAAIRSNGGRTYYADSVKGRFTISRDNAKNSVYLQMNSLKPEDTAVYYCAAPHYPYDTPYGYWGQGTQVTVSS | low polyreactivity
QVQLVESGGGLVQAGGSRRLSCAASGRTFIVYAMGWYRQAPGKERELVARISSGSRTSYADSVKGRFTISRDNAKNTVYLQMNSLKPEDTAVYYCAKSRVIKYEFDYWGQGTQVTVSS | low polyreactivity
QVQLVESGGGLVQAGGSLRLSCAGSGRTLVLYDRGWSRQAHGKARELVAAITWSGDSTYYADSVKGRFTISRDNAKNTVYLQMNSLKPEDTQVYYCSATYLNAKRGLRDDYWGQGTQVTVSS | low polyreactivity
QFQLVESGGGLVQAGGSLRLSCAASGSIFHPYTMGWYRPAPGKERELVAAISWSGGNTNYADSVKGRFTISRDNAKNTVYLQMNSLKPEDTAVYYCNKATNLSGGYDSWGQGTQVTVSS | low polyreactivity
QVQLVESGGGLVQAGGSLRLSCAASGYIFVYNAMGWYRQAPGKERELVAAISTTGGRTYYADSVKGRFTISRDNAKNTVYLLMNSLKPEDTAVYYCAARAYYAWTLFGYWGQGTQVTVSS | high polyreactivity
QVQLVESGGGLVQAGGSLRLSCAASGIPRNTMGWYRQAPGKERELVASISTSGGSTYYADSVKGRFTISLDNAKKTVYLQMNSLKPEDTAVYYCAKKAYASRYFIYDYWGQGTQVTVSS | low polyreactivity
QVQLEESGGGLLQAGGSHSLSCAASGSTFYKYGMVWYRQAPGKEREFVAAISGSGDSTYYADSVKGRFTISRDNAKNTVYLHMNRLKPEDTAVYYCNAGPWWYLHEYDYWGQGTQVNVSS | low polyreactivity
QVQLVESGGGLVQAGGSLRLSCAASGFTFWRNTMGCSRQAPGKETEFVAAIDWSGGSTTYAVSVKGRFTFSRDNAKNSVYLQMNSLKPEDTAVYYCAAAERRRHYWWGQESDYWGQGTQVTVSS | low polyreactivity
QVQLGETGGGLVQAGGSLRLICAASGSTFTINGMGWSRQAPGKDRELVAAITSGGSTYYADSVKGRFTISRDNAKNTVYLQMNSLKPEDTAVYFCAAADGRDYWGQGTQVTVSS | low polyreactivity
QVQLVESGRGLVQAGGSLRLSCAASGRIFSGNAMGWYRQAPGKERELVAGITWTGGRTYYAASVKGRFTISRDNAKNTVYLQMNSLKPEDTAVYYCAARYTRWSDLMYYWGQGTQVTVSS | high polyreactivity
QVQRVESGGGLVQAGGSLRLSCAASGSIFPYYAMGWYRQAPGKETELVATITYRGGSTNYADSVKGRFTISRDNAKNTVYLQMNSLKPEDTAVYSCAAYGYVLASPYPYSFVKLGYCGQGTQVTVSS | low polyreactivity
QVQLVESGGGLVQAGGSLRLSCAASGNIFYNVMGWYRQAPGKVRELVAVISSGDSTYYADSVKGRFTISRDNAKNTVYLQMNSLIPEDTAVYYCNAQWITSAYLLYSYDYWWGYDYWGQGTQVTVSS | high polyreactivity

Sequence | polyreactivity (PSR sort gate)
QVQLVESGGGLVQAGGSLRLSCASSGRIFRWYAMGWYRQAPGKERELVAAISRSGTSTYYADSVKGRFTISRDNAKNTVFLQMNSLKPEDTAVYYCNTDVQVYSYNYWGQGTQVTVSS | low polyreactivity
QVQLVESGGGLVQAGGSLRLSCAPSGIIFRGNAMGWYRQAPGKEREFVAAISLRGSRTYYADSVKGRFTISRDNAKNTVYLQMNSLKQEDTAVYYCAATRPYRYNYWGQGTQVTVSS | high polyreactivity
QVQLVESGGGLVQAGGSLRLSCAASGSIFGFNAMGWYRQARGKERELVAAINNGGSTNYADSVKGRFTISRDNAKNTVYLQMNSLKPEDTAVYYCAARLNYIRRGYWGQGTQVTVSS | high polyreactivity
QVQLVESGGGLVQAGGSLRISCAASGPTFGYNGMGWYRQAPGKERELVAAINSGGNTNYADSVKGRFTISRDNAKYTVDFQLNSLKPEDTAVYYCAKYGTLYEPVPNEYDYWGQGTQVTVSS | low polyreactivity
QVQLVESGGGLVQAGGSLRLSCAASGSTFYFNTMGWYRQAPGKERELVAAIRRSSGSTYYADSVKGRFTISRDNAKNTVYLQMNSLKPEDTAVYYCAADNAVTRYGRIDRDYWGQGTQVTVSS | low polyreactivity
QVQLVESGVGLVQAGGSLRLSCASSGFIFNYNTMGWYRQAPGKETELVAAISSSGGSTYYADSVKGRFTISRDNAKNTVYLQMNSLKPEDTAVYYCGAGANAQRVPNGDYWGQGTQVTVSS | low polyreactivity
QVQLVESGGGLVQAGGSLRLSCAASGFTFPRYAMGWYRQAPGKERELVAAISYSGGRTYYADSVKGRFTISRDNAKNTVYFQMNSLKPEDTAVYYFATEASTKRYDYWGQGTQVSVSS | high polyreactivity
QVQLEESGGGLVQAGGSLRLSCAASGRTFSYNAMGWYRQPPGKEREFVAAITWRGSSTYYADSVKWRFTISRDYEKNTVYLQMNSLIPDDTAVYECNARATNVIWGRYDYWGQGTQVTVSS | high polyreactivity
QVQLVESGGGLVQAGGSLRLSCAASGSTFGGYAMGWYRQAPGKERELVAAITWSGDTYYADSVKGRFTISRDYAKNTVYLQMNSLKPEDTAVYYCAASYLGFHMSYDYWGQGTQVNVSS | high polyreactivity
QVQLVESGGGLVQAGGSLRLSCAASGRTFGRNAMGWYRQAPGKEREFVAAISRRGDTTYYADSVKGRFTISRDNAKNSVYLQMNSLKPEDTAVYYCNAAVIKDRFSWYYYWGQGTQVTVSS | low polyreactivity
QVQLVESGGGLVQAGGSLRLSCAASGITFYEYAMGCYRQAPGKERELVATITSGGNTNYADSVKGRFTISRDNAKNTVYLQMNSLKPEDTAVYYCNKEWDGDGYTDDCDYDYWGQGTQVTVSS | low polyreactivity
QVQLVESGGGLVQAGGSLRLSCAASGSTFYYNAMGWYRQAPGKERELVAAITFTGGSTYADSVKGRFTISRDNAKNTVYLQMNSLKPEDTAVFYCAATIQGHDYLGTGYDYWGQGTQVTVSS | low polyreactivity
QVQLVESGGGLVQAGGSLRLSCAASGSIFRSYAMGWYRQAPGKERELVASISRRGGSTYYADSVKGRFTISRDNAKNTVYLQMNSLKPEDTAVYYCAVESGYTRSSDYWGQGTQVTVSS | low polyreactivity
QVQLVESGGGLVQAGGSLRLSCAASGRILTKYAMGWYRQAPGKERELVAAISDSGTGTYYADSVKGRFTISRDNAKNTVYLQMNSLKPEDTAVYYCHAQTRRTRTYHGHKYGYWGQGTQVTVSW | high polyreactivity
QVQLVESGGGLVQEGGSLRLSCASSGITFYSNAMGWYRQAPGKERELVATITRGGSTYYADSVKGRFTISRDNAKTTVYLHMNSLKPEDTAVYYCAADYSYRGREYGYWGQGTQVTVSS | low polyreactivity
QVQLVESGGGLVQAGGSLRLSCAASGFIFGSNAMGWYRQAPGQERELVAAIDSSGGRTNYADSVKGRFTISRDNAKNTVYLQMNSLKPEDTAVYYCNVYRWSQLFEYDYWGQGTQVTVSS | high polyreactivity
